Measured values published in patent US20200376013.

Tested on: SDM-145

hMMP-9, sequence (chain, as listed by the source): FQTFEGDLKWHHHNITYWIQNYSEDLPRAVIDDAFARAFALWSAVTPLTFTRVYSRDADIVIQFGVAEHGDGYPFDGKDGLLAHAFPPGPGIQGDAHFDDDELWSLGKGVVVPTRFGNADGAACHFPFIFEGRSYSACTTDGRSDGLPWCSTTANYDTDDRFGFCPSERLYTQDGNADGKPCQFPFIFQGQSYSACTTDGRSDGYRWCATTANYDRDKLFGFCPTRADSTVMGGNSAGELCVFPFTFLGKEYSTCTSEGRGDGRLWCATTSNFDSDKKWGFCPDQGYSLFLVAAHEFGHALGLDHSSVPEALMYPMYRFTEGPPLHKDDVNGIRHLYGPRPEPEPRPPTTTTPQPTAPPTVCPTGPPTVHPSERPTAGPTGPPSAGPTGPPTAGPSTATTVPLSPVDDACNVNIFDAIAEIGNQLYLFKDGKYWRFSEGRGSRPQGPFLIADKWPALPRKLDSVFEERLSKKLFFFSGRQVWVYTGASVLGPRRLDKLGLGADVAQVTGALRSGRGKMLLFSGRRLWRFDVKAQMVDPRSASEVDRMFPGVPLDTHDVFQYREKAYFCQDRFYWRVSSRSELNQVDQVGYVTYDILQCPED

Substance: Cathepsin B, human liver
- cleavage followed by LC-MS with fluorescence detection (ex 480 nm, em 560 nm), sodium acetate buffer pH 5.0, 37 C: The cleavage reaction was complete after 17 hour.

Substance: hMMP-9
- cleavage followed by LC-MS with fluorescence detection (ex 480 nm, em 560 nm), TCNB buffer pH 7.5, 37 C: The cleavage reaction was complete after 17 hour.
